The values below come from the DeepSol protein solubility set.

This series is described as follows: soluble on expression in E. coli; label from the status in PepcDB or PDB records.
For “MGMENYNPPQEPWLVILYQDDHIMVVNKPSGLLSVPGRLEEHKDSVMTRIQRDYPQAESVHRLDMATSGVIVVALTKAAERELKRQFREREPKKQYVARVWGHPSPAEGLVDLPLICDWPNRPKQKVCYETGKPAQTEYEVVEYAADNTARVVLKPITGRSHQLRVHMLALGHPILGDRFYASPEARAMAPRLLLHAEMLTITHPAYGNSMTFKAPADFLEHHHHHH”, the “soluble on expression in E. coli” value is on record as “soluble”.
As for “MSLDKFQLKGKVALVTGCKRGIGKAMAIGLAEAGADIIGVSASLELEGSSVEQAIRATGRNFKAYQCDFSDRKSLYNFINSVKADYSRIDILVNNAGTILRTPAAEHPDEMWDKVIEVNQNAQFILTRELGKEMVSRGEGKVIFTASLLTFQGGITVPGYAASKGAIGQMTMAFANEWASKGVNVNAIAPGYISTDNTEALRNDPDRSASILSRIPAGRWGEAEDFAGPVVFLASEAAAYMHGSIMLVDGGWMGREGHHHHHH”, the entry is “soluble”.
The same measure for “MIRFCSLYSGSSGNAIFLSTGKTKILIDAGLSGKKITEALVSIGEKPSELSAILVSHEHSDHIKGAGIISRKYDVPIYANENTWAAMENLIGPVSVKNKMYFNTGREFEIGDVIINPFPIPHDAVEPVGFNFFVENSKITTATDIGHMNRELLEYIEGSDFLLIESNHDIEMLKVGPYPWPLKKRILGDKGHLSNEMAGKVVAHLAERGTRCFMLGHLSKENNFPELAYETVRNILKERNIDIERDIKLSVALRDKVGQVVEILEHHHHHH”: “not soluble”; for “GPGSMTSKKAAKEKDEYTPQERLTAAALEYKKLEGHNQSSIERMYGALSSPFRVSNKPCEVPRAAVLRCFEEILGKTNNGENGSTDNLAETTVVGRSISGGNNADGRVLLSSDSRFPSVHRCYDAVLQYESCVVEKTLAQHHSLLAGFEARQLQEAESANEVPKAVASGA”: “not soluble”.
The same measure for “MGSDKIHHHHHHMQDLLRWKNSKHRKPLILKGVRQVGKTWLLKEFARRYYNNLAYFNFDEHPEYKQFFENTKDVERILQNLMMASGQIINPKEPGTTLIVFDEIQECPNALNTLKYFCENTPHYHVACAGSLLGIALSKPASFPVGKVDFLEIGPMTFTEFLLANGDGNFVSYLDNLDRIEPIPDAFFNPLYEKLKMYFVTGGMPESVRSWTEERDVELVQQVLANILGAYERDFAKHPDPKDFPKISLIWKSLPSQLARENKKFIYKVVKEGARAREYEEALQWLCDASLAYKIYRSSAPGLPISAYDDLAAFKLYLVDVGLLRRLSLLAPSAFGEGNRLFVEFKGALSENYVLQALRNQLEAMPRYWTMDNPRHEVDFLIQRENEIIPVEVKSETNVESRSLKKFKEKYGDKVKLRVRFSLNNLRLDGDLLNIPLFITDYADKLIGMALTDQPKE”: “not soluble”; for “MGSDKIHHHHHHMVSLLRRTFSEEIKEELVNVPFGSREEVISELLGFIKARGDLDVKSRHIVFSLHSFAASRRLLNLMKYLSKPVSEIIVEKSHNIKKRYIKITAEYSESFMVIEPFFDVALFVSFLRGLFLSGGSMTNPRYHYHLEINLFEEETLALTRKSLKDFFNINAGIIELRNTRKLYIKSIKDILVFLEAIGVQRKLEEIDRIVTERKVIGDVNRTVNFIEANAIRTANSTARQIRAIELIKENMGLENLPEDLRRVALVRLRNKELSLRELGKKLNLTKSQIYSKLKRIIKIAERFGDVK”: “not soluble”.
In the case of “DVTPRRDAEYPPPEFLEAMKPLREICIKKTGVTEEAIIEFSDGKVHEDENLKCYMNCLFHEAKVVDDTGHVHLEKLHDALPDSMHDIALHMGKRCLYPEGENLCEKAFWLHKCWKESDPKHYFLI”, the “soluble on expression in E. coli” value was “soluble”.
The same measure for “MRDVDLTAAPAKKAKLDTGERIAVSGRVASVKLTNFMCHANLQIDFKTAQNNCFYIGGPNGSGKSALFAAINLGLGGRGSDNDRGNTVKSYIKDGTTQSKITITLTNAGLNAHPDFDDLISIERTINQASSTYIMKSVKVTSSDNHVERIVSRKKADVDRIVSRFSIHLSNPAFWMSQDRSRSFLANFKPANVYKLYLESTNLENIRLSYIRFADALDECFALIQLKAGEILNEQKKLKRMQEQRDLQAKLDQDRALVASFCWKLLFCKVRDYNDQIELTLKKQEAQKTLQDETKKEYAKNRAARTEVEKKIQEFRDEVEVQDAEIAEAREDLDAKKRKVLEFEEKIRECEQSIRKKTSEKKYMERTIVNAKNEVRILLEKQGNQDLTKRLTKVENDYKDISQQRENMELGGESAKLREKLDTVITDYKRKEEEKYTIQRDINQLRRKIEQDMETMRRSRATKKDAINKFGSHMAEILMEINRSKSRFQTVPKGPLGKYITLIDPKWAFTVEECIGNLANNFLCSSHLDAEILRNIFQSLRIPAQDRPTIIVAKCNGRAYTNLHEPSSDFKSIYRVLKFSDPDVHNVIIDKSNCEQFILIEDKTEAMELMGSNYPPQNAVKAYTLDGSQAYANGPNSQYRFYSGRGGHARGTFGNDQGDVDEGALARLIEDTKSEAMRLETQDLRKQDHELKVIYNERDQTKAAIDEFDRKLSNLRSQELQKERQAKDLRAELAQTANEDQVENLNESIEEMQKKIPLIEDEVKDILKNVADITADMAPVIQERKEAEHTLAEIQKETRDFASKSQKLQNELSKYDDAGEILKIRLDKVKADEGVFFHTEAKLKSERDDAMEMVENDKKNHPMPPGETDPPDLSSFPSTTEAQRKIEEMQKAVDRATVGCDTTITLECVKDFKDKLKRLKYLCRMIEDVLIELKNLHAARVKAYPSLKKFTELKVCNKFQELLAVRGHFIGGLEFDHEKETLNVNVQSSKEKDAMAGRRPEVLEVEEVDEHSYDDDSDDSTGPRRKKSKKSGQKKKRVRDLKGLSGGERSFVTAALVMSLWEVMEQPFRMMDEFDVFMDMMNRKLVMDLLVELATKKFPHNQFIFFTPQGIKELNMVDGLQVFEMNRVRD”: “not soluble”.
In the case of “MGSDKIHHHHHHMVAMRIAIIGANGQLGTDLVEVFGNDPEFEVVPLTHKDLDVTIPESLKVLKEIKPDVLINTAAYVRVDDAELYPEKAFAVNAIGALNVARIANEIDAVNVYISTDYVFDGEKGEPYTEEDVPNPINVYGVSKYTGEIFTRNYSPKHYIIRVASLYGKAGASGKGGNFVEWVIEKAKHGEELKIVDDQFMSPTYTKDVARTLKEFLKLRSEFGVYHMVNEGFCSWYEFTEAIFDVLGWNVEIKPIKSNELNRLAKRPRFSALKNEKLEKIGLRMRHWREALEEYLKEKGYV”, the “soluble on expression in E. coli” value is recorded as “not soluble”.
As for “MEALNKKLFRLNSKEKIQKSTGTFVPDLPNGSFLKENGSMELLNDYFFKNKDIYISKHNRFADYPYHTHQFLELNYMYSGSSEQVIEGNKETLHEGELLLLDSACHHSIKATGEKDILINILFRDQQISLEWLTSIKKKNSLLFDFLLHSSVSEQSLKKYIIFQSAQIPHIQQFLNQIITEYFLEEEFSSRIITLYLPILFTELVRKCDTYLADDLTSAQSSTTSTMLEVIKLIESNYRTITLTSAADTLGYNKNYLSNFIKKNTNFTFTELVNKQKMLAANLLIETTSTPIELIIEKVGFSNKTYFYSLYKKTFNLLPNEVRNKK”, the entry is “not soluble”; as for “MAVIVLAGTIGAGKSSLTALIANRLGSEAFYESVDDNEVLPLFYAEPEKYAFLLQIYFLNKRFDSIKQALTHENNVLDRSIYEDSLLFHLNADLGRANETEVKVYDDLLQNMLQELPYAAHKKRPDLLVHIRISFPKMLERIKKRGRPYEQIETDPTLYDYYQMLNERYDQWYEDYDESPKIQIDGDKYDFVEDPEACQYVLALIEKKIEELER”, “not soluble”; as for “MQFSKMHGLGNDFVVVDGVTQNVFFTPETIRRLANRHCGIGFDQLLIVEAPYDPELDFHYRIFNADGSEVSQCGNGARCFARFVTLKGLTNKKDISVSTQKGNMVLTVKDDNQIRVNMGEPIWEPAKIPFTANKFEKNYILRTDIQTVLCGAVSMGNPHCVVQVDDIQTANVEQLGPLLESHERFPERVNAGFMQIINKEHIKLRVYERGAGETQASGSGACAAVAVGIMQGLLNNNVQVDLPGGSLMIEWNGVGHPLYMTGEATHIYDGFITL”, “soluble”.
The same measure for “MEITRLLTLYYEATPDPQNPLEGVRFGTSGHRGSSLKATFTEAHVLAIAQAIAELRPSFGATGPLFLAKDTHALSEPAWATALSVFAAHGIEVRVEADGDYTPTPLVSLAILEHNAHHEAKADGVLLTPSHNPPEDGGFKYNPPTGGPANARITRAIEERANALLQEGLKGVKRLPLREALARAKPFDYAGLYVEKVAEAVDLEAIRASGLRIGVDPLGGASLRVWERLAESHGLPLEVVNPTLDPTFRFMPKDHDGKIRMDCSSPYAMAGLLALKDRFDLAIGNDPDADRHGIVTPRGLMNPNHYLAAALHHLYTTRSWPGAKVGKTAVTSALLDRVAQALGREVYETPVGFKHFVAGLLEGWLGFAGEESAGASFLRFDGRPFSTDKDGILMGLLAAELMAKRGQAPDALYEALAEKLGRPYYARKDLPVSPEAKARLARLSAKEVHPSTLAGEPVLQVLDRATGNGEPLGGIKVVAANAWFAVRPSGTEDVAKVYAESFLGEAHLERVLEEATALLHKALA”: “soluble”; for “AQEPVKGPVSTKPGSCPIILIRCAMLNPPNRCLKDTDCPGIKKCCEGSCGMACFVPQ”: “soluble”.
As for “MGSSHHHHHHSSGLVPRGSHMVASETLKTKKMEVQIKKNFPSVLQYTMTDGKVMYGQSKDVRTVEINGTNIELGDDDVTFKKVSDTEATYTLKVKDEAKKIDAVITVQITVKANQLHLNVTKIKNNLSEGIPEGNGVEENAIQTLSFPNQSLVSVRSSQENAQFTGARMSSNTQKPGDTNFAVTEDTNVTDSDYTYGFISGAGLSAGLWSNSEHDGTYVAAPVRGGSQNTRVYATTQQTGDATSLGLASAPWYYHRTVTDSKGKKYTVAETALPQMAVAIAGDENEDGAVNWQDGAIAYRDIMNNPYKSEEVPELVAWRIAMNFGSQAQNPFLTTLDNVKKVALNTDGLGQSVLLKGYGNEGHDSGHPDYGDIGQRLGGADDMNTMMEEGSKYGARFGVHVNASEMYPEAKAFSEDMVRRNSAGGLSYGWNWLDQGVGIDGIYDLASGSRVSRFADLSKEVGDNMDFIYLDVWGNLTSSGSEDSWETRKMSKMINDNGWRMTTEWGSGNEYDSTFQHWAADLTYGGYTSKGENSEVMRFLRNHQKDSWVGDYPQYGGAANAPLLGGYNMKDFEGWQGRNDYAAYIKNLYTHDVSTKFIQHFKVTRWVNNPLLTADNGNAAAVSDPNTNNGNEQITLKDSNGNVVVVSRGSNDTSSAAYRQRTITFNGVKVASGVVSAGDGSATGDESYLLPWMWDSFTGKLVKDSEQKLYHWNTKGGTTTWTLPDSWKNLSSVKVYQLTDQGKTNEQTVAVSGGKVTLTADAETPYVVYKGEAKQIQVNWSEGMHVVDAGFNGGSNTLTDNWTVSGSGKAEVEGDNNAMLRLTGKVDVSQRLTDLKAGQKYALYVGVDNRSTGDASVTVTSGGKVLATNSTGKSIAKNYIKAYGHNTNSNTENGSSYFQNMYVFFTAPENGDATVTLSHKSTDGAHTYFDDVRIVENQYSGITYEKDGTLKSLTNGFENNAQGIWPFVVSGSEGVEDNRIHLSELHAPFTRAGWDVKKMDDVLDGTWSVKVNGLTQKGTLVYQTIPQNVKFEAGAKYKVSFDYQSGSDDIYAIAVGQGEYSAGSVKLTNLKKALGETGKAEFELTGGVNGDSWFGIYSTATAPDLQGSTGNAQDFGGYKDFVLDNLKIERIESQTRTKAEAQDKVKEIRGKYDSKRAELSDAAWQQYQDTLVKARVLINKNGATAEDFTKAYDILVALDEYMKTAPGNESSDKYDVAADGSDELGGYTVATGSEEPTAGLPSEGPADLAQDGNDSTHWHTSWSENAVGNGTAWYQFNLNEPTTINGLRYLPRSGGMNANGKIKGYKITLTLADGTTKDVVTDAEFSTTTMWQKASFDAVENVTAVRLTVLSSAGQSDSQANKFASAAELRLTTDRE”, the entry is “soluble”.
